Data reported in patent US20250339569A1 (3B PHARMACEUTICALS, published 2025).
Values belong to the binder of their own block, whether it stands above or below them. Starred links: 1 amine or outer side, 2 acyl side, 3 side chain; linkers in the order of their positions; H or OH if unused. Positions of bridges follow the written chain, without caps; N, C: chain ends. Non-standard residues stand in square brackets, D forms with d. Primed or numbered codes have the meaning given here. *: point of attachment. Af3(DImAc) = 3-aminophenylalanine acylated on the ring amine with 2-{2,5-dioxo-octahydroimidazo[4,5-d]imidazolidin-1-yl}acetic acid, O=C(CN1C(=O)NC2NC(=O)NC21)Nc1cccc(C[C@H](N[*:1])C(=O)[*:2])c1; Af3(HySuc) = 3-amino-L-phenylalanine acylated on the ring amine with 2-(3,6-dioxo-1,2,3,6-tetrahydropyridazin-4-yl)acetic acid, O=C(Cc1cc(=O)[nH][nH]c1=O)Nc1cccc(C[C@H](N[*:1])C(=O)[*:2])c1; Af3(CMPy) = 3-amino-L-phenylalanine acylated on the ring amine with 5-cyano-1-methyl-1H-pyrazole-4-carboxylic acid, Cn1ncc(C(=O)Nc2cccc(C[C@H](N[*:1])C(=O)[*:2])c2)c1C#N; af3(ac-glu) = lower case: 3-amino-D-phenylalanine, ring amine acylated with N-acetyl-D-glutamic acid, CC(=O)N[C@H](CCC(=O)[*:3])C(=O)Nc1cccc(C[C@@H](N[*:1])C(=O)[*:2])c1; af3(ac-asp) = lower case: 3-amino-D-phenylalanine, ring amine acylated with N-acetyl-D-aspartic acid, CC(=O)N[C@H](CC(=O)[*:3])C(=O)Nc1cccc(C[C@@H](N[*:1])C(=O)[*:2])c1; Af3(TzPr) = 3-amino-L-phenylalanine acylated on the ring amine with 3-(1H-1,2,4-triazol-3-yl)propanoic acid, O=C(CCc1nc[nH]n1)Nc1cccc(C[C@H](N[*:1])C(=O)[*:2])c1; Af3(Ac-Glu) = 3-aminophenylalanine acylated on the ring amine with N-acetyl-glutamic acid, CC(=O)N[C@@H](CCC(=O)[*:3])C(=O)Nc1cccc(C[C@H](N[*:1])C(=O)[*:2])c1; Aph(HO-Succinyl) = 4-aminophenylalanine acylated on the ring amine with succinic acid (free carboxyl), O=C(CCC(=O)[*:3])Nc1ccc(C[C@H](N[*:1])C(=O)[*:2])cc1; Aph(4SaBz) = 4-aminophenylalanine, ring amine acylated with 4-sulfamoylbenzoic acid, NS(=O)(=O)c1ccc(C(=O)Nc2ccc(C[C@H](N[*:1])C(=O)[*:2])cc2)cc1; Af3(HYDAc) = 3-aminophenylalanine, ring amine acylated with hydantoin-5-acetic acid, O=C(CC1NC(=O)NC1=O)Nc1cccc(C[C@H](N[*:1])C(=O)[*:2])c1; Af3(Ac-Asp) = 3-aminophenylalanine acylated on the ring amine with N-acetyl-aspartic acid; APAc″ = 2-(4-(amino)piperidin-1-yl)acetic acid, NC1CCN(CC(=O)*)CC1; DOTA = O=C(O)CN1CCN(CC(=O)O)CCN(CC(=O)*)CCN(CC(=O)O)CC1; mXylylene = c1cc(C[*:1])cc(C[*:2])c1; N4BzlCONH2 = not defined here; N4BzlCN = not defined here; N4BzlCl = not defined here; NOAzOMe = not defined here; PPAc″ = not defined here; APAc = not defined here; Dap = NC[C@H](N)C(=O)O; AEEA = NCCOCCOCC(=O)O; βAla = NCCC(=O)O; Sar = CNCC(=O)O

How the values were obtained:
[1] = target: human carbonic anhydrase 9 (CAIX) (human, UniProt Q16790 38-459); experiment: FACS competition on HT-29 cells, competitor tracer 3BP-4149; category B = pIC50 7.1-8.0
Procedure: (§1) CAIX-expressing human HT-29 colorectal cancer cells (DSMZ, RRID: CVCL_0320) were cultured in McCoys's 5A modified medium (Biochrom, #F1015) including 10% fetal calf serum (FCS), 2 mM L-glutamine, 100 U/ml penicillin and 100 μg/mL streptomycin. Cells were detached with Accutase (Biolegend, #423201) and washed in FACS buffer (PBS including 1% FCS). Cells were diluted in FACS buffer to a final concentration of 500.000 cells per ml. 200 μL of the cell suspension were transferred to a u-shaped non-binding 96-well plate (Greiner) and cells were washed in ice-cold FACS buffer.
(§2) When biotinylated compounds were used an additional incubation step with 1 μg/mL APC-Streptavidin (Miltenyi; #130-106-791) in 50 μL FACS buffer for 30 minutes on ice was performed.
(§3) Cells were washed twice with ice-cold FACS buffer and analyzed in an Attune NxT flow cytometer (Thermo Fisher). Median fluorescence intensities (MFI) of the APC/Cy5-channel were calculated by Attune NxT software.

[2] = target: T1, Fc-fusion protein of human carbonic anhydrase IX (human, UniProt Q16790 38-414); experiment: SPR, captured hCAIX-Fc; t1/2 category C: 2.1-5.0 min
[3] = target: human carbonic anhydrase IX (CAIX) (human, UniProt Q16790 38-459); experiment: FACS competition, HT-29 cells, tracer 3BP-4149; pIC50 category B: 7.1-8.0
Procedure: as §1, §2, §3

[4] = target: T1, Fc-fusion protein of human carbonic …; experiment: SPR, captured hCAIX-Fc; pKD category A: >8.0
[5] = target: human carbonic anhydrase 9 (CAIX) (human, UniProt Q16790 38-459); experiment: FACS competition on HT-29 cells against tracer 3BP-2776; pIC50 category C = pIC50 6.1-7.0
Procedure: as §1, §2, §3

pIC50 [1]: 7.1 to 8 pic50
B1: 3BP-4333 (peptide)
peptide: {DOTA-APAc″}-VYCE[dP]E(N4BzlSO2Me)WLTWSC-NH2
modifications: linker 3-12 via mXylylene

pIC50 [1]: 7.1 to 8 pic50
B2: 3BP-4345 (peptide)
peptide: {DOTA-APAc″}-VYCE[dP]E(N4BzlCONH2)WLTWSC-NH2
modifications: linker 3-12 via mXylylene; not fully specified; reading uncertain

pIC50 [1]: 7.1 to 8 pic50
B3: 3BP-4340 (peptide)
peptide: {DOTA-APAc″}-VYCE[dP]E(N4BzlCN)WLTWSC-NH2
modifications: linker 3-12 via mXylylene; not fully specified; reading uncertain

pIC50 [1]: 7.1 to 8 pic50
B4: 3BP-4339 (peptide)
peptide: {DOTA-APAc″}-VYCE[dP]E(NOAzOMe)WLTWSC-NH2
modifications: linker 3-12 via mXylylene; reading uncertain

pIC50 [1]: 7.1 to 8 pic50
B5: 3BP-4334 (peptide)
peptide: {DOTA-APAc″}-VYCE[dP]E(N4BzlCl)WLTWSC-NH2
modifications: linker 3-12 via mXylylene; reading uncertain

pIC50 [1]: 7.1 to 8 pic50
B6: 3BP-4364 (peptide)
peptide: {DOTA-APAc″}-VYCE[dP]D[af3(ac-asp)]LTWSC-NH2
modifications: linker 3-12 via mXylylene; not fully specified

pIC50 [1]: 7.1 to 8 pic50
B7: 3BP-4262 (peptide)
peptide: {DOTA-AEEA}-DCE[dP]DWLTW[Dap]C-NH2
modifications: lactam 10-1; linker 2-11 via mXylylene
SMILES: CC(C)C[C@@H]1NC(=O)[C@H](Cc2c[nH]c3ccccc23)NC(=O)[C@H](CC(=O)O)NC(=O)[C@H]2CCCN2C(=O)[C@H](CCC(=O)O)NC(=O)[C@@H]2CSCc3cccc(c3)CSC[C@@H](C(N)=O)NC(=O)[C@H](CNC(=O)C[C@H](NC(=O)COCCOCCNC(=O)CN3CCN(CC(=O)O)CCN(CC(=O)O)CCN(CC(=O)O)CC3)C(=O)N2)NC(=O)[C@H](Cc2c[nH]c3ccccc23)NC(=O)[C@H]([C@@H](C)O)NC1=O

t1/2 (half-life of the complex, SPR) [2]: 2.1 to 5 min
pIC50 [3]: 7.1 to 8 pic50
pKD [4]: > 8 pkd
B8: 3BP-4398 (peptide)
peptide: {DOTA-APAc}-VYCE[dP]D[Aph(4SaBz)]LTWSC-NH2
modifications: linker 3-12 via mXylylene; reading uncertain

pIC50 [1]: 7.1 to 8 pic50
B9: 3BP-4362 (peptide)
peptide: {DOTA-APAc″}-VYCE[dP]D[af3(ac-glu)]LTWSC-NH2
modifications: linker 3-12 via mXylylene; not fully specified

pIC50 [1]: 7.1 to 8 pic50
B10: 3BP-4322 (peptide)
peptide: {DOTA-APAc″}-VYCE[dP]D[Af3(HySuc)]LTWSC-NH2
modifications: linker 3-12 via mXylylene

pIC50 [1]: 7.1 to 8 pic50
B11: 3BP-4361 (peptide)
peptide: {DOTA-APAc″}-VYCE[dP]D[Af3(Ac-Glu)]LTWSC-NH2
modifications: linker 3-12 via mXylylene

pIC50 [5]: 6.1 to 7 pic50
B12: 3BP-2836 (peptide)
peptide: Ac-MVYCEGDWLTWQC-NH2
modifications: linker 4-13 via mXylylene
SMILES: CSCC[C@H](NC(C)=O)C(=O)N[C@H](C(=O)N[C@@H](Cc1ccc(O)cc1)C(=O)N[C@H]1CSCc2cccc(c2)CSC[C@@H](C(N)=O)NC(=O)[C@H](CCC(N)=O)NC(=O)[C@H](Cc2c[nH]c3ccccc23)NC(=O)[C@H]([C@@H](C)O)NC(=O)[C@H](CC(C)C)NC(=O)[C@H](Cc2c[nH]c3ccccc23)NC(=O)[C@H](CC(=O)O)NC(=O)CNC(=O)[C@H](CCC(=O)O)NC1=O)C(C)C

pIC50 [1]: 7.1 to 8 pic50
B13: 3BP-4356 (peptide)
peptide: {DOTA-APAc″}-VYCE[dP]D[Aph(HO-Succinyl)]LTWSC-NH2
modifications: linker 3-12 via mXylylene

t1/2 (half-life of the complex, SPR) [2]: 2.1 to 5 min
pIC50 [3]: 7.1 to 8 pic50
pKD [4]: > 8 pkd
B14: 3BP-4371 (peptide)
peptide: {DOTA-APAc}-VYCE[dP]D[Af3(HYDAc)]LTWSC-NH2
modifications: linker 3-12 via mXylylene; reading uncertain

pIC50 [5]: 6.1 to 7 pic50
B15: 3BP-3044 (peptide)
peptide: Ac-V[dY]CEGDWLTWQC-NH2
modifications: linker 3-12 via mXylylene
SMILES: CC(=O)N[C@H](C(=O)N[C@H](Cc1ccc(O)cc1)C(=O)N[C@H]1CSCc2cccc(c2)CSC[C@@H](C(N)=O)NC(=O)[C@H](CCC(N)=O)NC(=O)[C@H](Cc2c[nH]c3ccccc23)NC(=O)[C@H]([C@@H](C)O)NC(=O)[C@H](CC(C)C)NC(=O)[C@H](Cc2c[nH]c3ccccc23)NC(=O)[C@H](CC(=O)O)NC(=O)CNC(=O)[C@H](CCC(=O)O)NC1=O)C(C)C

pIC50 [1]: 7.1 to 8 pic50
B16: 3BP-4305 (peptide)
peptide: {DOTA-APAc″}-VYCE[dP]D[Af3(CMPy)]LTWSC-NH2
modifications: linker 3-12 via mXylylene

pIC50 [5]: 6.1 to 7 pic50
B17: 3BP-3055 (peptide)
peptide: Ac-VYCEGDWATWQC-NH2
modifications: linker 3-12 via mXylylene
SMILES: CC(=O)N[C@H](C(=O)N[C@@H](Cc1ccc(O)cc1)C(=O)N[C@H]1CSCc2cccc(c2)CSC[C@@H](C(N)=O)NC(=O)[C@H](CCC(N)=O)NC(=O)[C@H](Cc2c[nH]c3ccccc23)NC(=O)[C@H]([C@@H](C)O)NC(=O)[C@H](C)NC(=O)[C@H](Cc2c[nH]c3ccccc23)NC(=O)[C@H](CC(=O)O)NC(=O)CNC(=O)[C@H](CCC(=O)O)NC1=O)C(C)C

pIC50 [5]: 6.1 to 7 pic50
B18: 3BP-3309 (peptide)
peptide: Ac-VYCE[Sar]DWL[dA]WQC-NH2
modifications: linker 3-12 via mXylylene
SMILES: CC(=O)N[C@H](C(=O)N[C@@H](Cc1ccc(O)cc1)C(=O)N[C@H]1CSCc2cccc(c2)CSC[C@@H](C(N)=O)NC(=O)[C@H](CCC(N)=O)NC(=O)[C@H](Cc2c[nH]c3ccccc23)NC(=O)[C@@H](C)NC(=O)[C@H](CC(C)C)NC(=O)[C@H](Cc2c[nH]c3ccccc23)NC(=O)[C@H](CC(=O)O)NC(=O)CN(C)C(=O)[C@H](CCC(=O)O)NC1=O)C(C)C
notes: also called Ac-Val-Tyr-[Cys(3MeBn)-Glu-Nmg-Asp-Trp-Leu-ala-Trp-Gln-Cys]-NH2

pIC50 [1]: 7.1 to 8 pic50
B19: 3BP-4363 (peptide)
peptide: {DOTA-APAc″}-VYCE[dP]D[Af3(Ac-Asp)]LTWSC-NH2
modifications: linker 3-12 via mXylylene

pIC50 [1]: 7.1 to 8 pic50
B20: 3BP-4324 (peptide)
peptide: {DOTA-APAc″}-VYCE[dP]D[Af3(TzPr)]LTWSC-NH2
modifications: linker 3-12 via mXylylene

t1/2 (half-life of the complex, SPR) [2]: 2.1 to 5 min
pIC50 [3]: 7.1 to 8 pic50
pKD [4]: > 8 pkd
B21: 3BP-4446 (peptide)
peptide: {DOTA-PPAc″}-YCE[dP]DWLTWSC-NH2
modifications: linker 2-11 via mXylylene; reading uncertain

pIC50 [5]: 6.1 to 7 pic50
B22: 3BP-3604 (peptide)
peptide: Ac-VY[dC][βAla]WLTWSC-NH2
modifications: linker 3-10 via mXylylene
SMILES: CC(=O)N[C@H](C(=O)N[C@@H](Cc1ccc(O)cc1)C(=O)N[C@@H]1CSCc2cccc(c2)CSC[C@@H](C(N)=O)NC(=O)[C@H](CO)NC(=O)[C@H](Cc2c[nH]c3ccccc23)NC(=O)[C@H]([C@@H](C)O)NC(=O)[C@H](CC(C)C)NC(=O)[C@H](Cc2c[nH]c3ccccc23)NC(=O)CCNC1=O)C(C)C
notes: also called Ac-Val-Tyr-[cys(3mebn)-Bal-Trp-Leu-Thr-Trp-Ser-Cys]-NH2

pIC50 [1]: 7.1 to 8 pic50
B23: 3BP-4341 (peptide)
peptide: {DOTA-APAc″}-VYCE[dP]D[Af3(DImAc)]LTWSC-NH2
modifications: linker 3-12 via mXylylene

pIC50 [5]: 6.1 to 7 pic50
B24: 3BP-3325 (peptide)
peptide: Ac-CE[Sar]DWLTWQC-NH2
modifications: linker 1-10 via mXylylene
SMILES: CC(=O)N[C@H]1CSCc2cccc(c2)CSC[C@@H](C(N)=O)NC(=O)[C@H](CCC(N)=O)NC(=O)[C@H](Cc2c[nH]c3ccccc23)NC(=O)[C@H]([C@@H](C)O)NC(=O)[C@H](CC(C)C)NC(=O)[C@H](Cc2c[nH]c3ccccc23)NC(=O)[C@H](CC(=O)O)NC(=O)CN(C)C(=O)[C@H](CCC(=O)O)NC1=O
notes: also called Ac-[Cys(3MeBn)-Glu-Nmg-Asp-Trp-Leu-Thr-Trp-Gln-Cys]-NH2
